Test results from paper PMC10277290.

B1: MdhBs (NAD+-dependent methanol dehydrogenase) (Geobacillus stearothermophilus) (protein)
chain: MKAAVVNEFKKALEIKEVERPKLEEGEVLVKIEACGVCHTDLHAAHGDWPIKPKLPLIPGHEGVGIVVEVAKGVKSIKVGDRVGIPWLYSACGECEYCLTGQETLCPHQLNGGYSVDGGYAEYCKAPADYVAKIPDNLDPVEVAPILCAGVTTYKALKVSGARPGEWVAIYGIGGLGHIALQYAKAMGLNVVAVDISDEKSKLAKDLGADIAINGLKEDPVKAIHDQVGGVHAAISVAVNKKAFEQAYQSVKRGGTLVVVGLPNADLPIPIFDTVLNGVSVKGSIVGTRKDMQEALDFAARGKVRPIVETAELEEINEVFERMEKGKINGRIVLKLKED
B2: MdhBs (NAD+-dependent methanol dehydrogenase) (Geobacillus stearothermophilus; K72T/T153P) (protein)
chain: MKAAVVNEFKKALEIKEVERPKLEEGEVLVKIEACGVCHTDLHAAHGDWPIKPKLPLIPGHEGVGIVVEVATGVKSIKVGDRVGIPWLYSACGECEYCLTGQETLCPHQLNGGYSVDGGYAEYCKAPADYVAKIPDNLDPVEVAPILCAGVTPYKALKVSGARPGEWVAIYGIGGLGHIALQYAKAMGLNVVAVDISDEKSKLAKDLGADIAINGLKEDPVKAIHDQVGGVHAAISVAVNKKAFEQAYQSVKRGGTLVVVGLPNADLPIPIFDTVLNGVSVKGSIVGTRKDMQEALDFAARGKVRPIVETAELEEINEVFERMEKGKINGRIVLKLKED
B3: MdhBs (NAD+-dependent methanol dehydrogenase) (Geobacillus stearothermophilus; E309K/N214D) (protein)
chain: MKAAVVNEFKKALEIKEVERPKLEEGEVLVKIEACGVCHTDLHAAHGDWPIKPKLPLIPGHEGVGIVVEVAKGVKSIKVGDRVGIPWLYSACGECEYCLTGQETLCPHQLNGGYSVDGGYAEYCKAPADYVAKIPDNLDPVEVAPILCAGVTTYKALKVSGARPGEWVAIYGIGGLGHIALQYAKAMGLNVVAVDISDEKSKLAKDLGADIAIDGLKEDPVKAIHDQVGGVHAAISVAVNKKAFEQAYQSVKRGGTLVVVGLPNADLPIPIFDTVLNGVSVKGSIVGTRKDMQEALDFAARGKVRPIVKTAELEEINEVFERMEKGKINGRIVLKLKED

Substrate: CO
Experiment: purified protein
Assay type: biochemical, Geobacillus stearothermophilus
Conditions: NAD+ 0.5 mM, Mg2+ 5 mM, PBS pH 7.4, 37 °C

In order of falling Km:
1. B1  30.03 ± 4.63 mM
2. B3  18.19 ± 3.27 mM
3. B2  9.84 ± 0.67 mM

In order of falling Vmax:
1. B2  0.0288 µmol/min/mg
2. B3  0.0238 µmol/min/mg
3. B1  0.0115 µmol/min/mg

In order of rising kcat:
1. B1  0.007 ± 0.001 s⁻¹
2. B3  0.013 ± 0.001 s⁻¹
3. B2  0.015 ± 0.001 s⁻¹

In order of rising kcat/Km:
1. B1  0.233 M⁻¹ s⁻¹
2. B3  0.715 M⁻¹ s⁻¹
3. B2  1.52 M⁻¹ s⁻¹
